From patent EP2986720B1, “URICASE MUTANTS” (Council of Scientific & Industrial Research, priority 2013, dated 2014)

Columns and labels:
Assay in all cases: Enzyme kinetic study of uricase (4-AAP/phenol/HRP colour assay, 505 nm)
[1] = test system: O=c1[nH]c(=O)c2[nH]c(=O)[nH]c2[nH]1; format: biochemical, Kluyveromyces lactis; conditions: other: substrate uric acid 10 to 600 µM, pH 7.0, 35°C, Table 1
Description: (§1) Enzymatic assay of uricase: Substrate mixture contains • a. 2.2 ml of 2 mM Uric acid • b. 0.15 ml of 60 mM 4-Aminoantipyrine (4-AAP) • c. 0.15 ml of 1.5% Phenol • d. 0.15 ml of 20 U/ml Horseradish peroxidase (HRP) • e. 0.1 M respective buffer to make up to 3 ml • a. Uricase added to the above mixture and incubated at 25°C for 20 min. The colour is measured at 505 nm (Chen, Wang et al. 2008). • b. The reaction mix was set for 300 µl rather than 3 ml for convenient measuring in BiotekPowerwave X Elisa plate reader. The amounts of the solutions added in the assay mix were calculated accordingly for 300 µl.
(§2) The kinetics of the uricases was studied to evaluate the efficiency of the enzymes. The kinetic parameters of the uricases of all the species were determined at their respective optimum pH and optimum temperatures. The substrate (uric acid) was added in increasing concentrations ranging from 10 to 600 µM (10, 20, 40, 80, 100, 200, 300, 400, 500, and 600) in triplicates. The assay reagents for the kinetic studies were added in 96 well plates in triplicates in the buffer of pH 7.0 and incubated at 35°C. Equal amounts of enzyme were added and immediately readings were taken at 505 nm. Around 30 readings were taken at the interval of 1min. The readings at a particular time point were taken for further steady state kinetic study of uricases. The KM and Vmax values were determined from Michaelis-Menten saturation curve by the non-linear curve fit (ORIGIN 7.5). kcat and kcat/KM values were also calculated (table 5). Table 5: Kinetic properties of the uricases of this invention

[2] = test system: O=c1[nH]c(=O)c2[nH]c(=O)[nH]c2[nH]1; format: biochemical, Aspergillus flavus; conditions: other: substrate uric acid 10 to 600 µM; respective optimum pH and temperature; Table 1; pH 7.0
Description: as §1, §2

[3] = molecular target: T1, Kluyveromyces lactis uricase variant KI F167W, Mutant 2 (SEQ ID NO.3) (Kluyveromyces lactis, UniProt Q6CNP7, F167W); format: biochemical; conditions: substrate uric acid; pH 7.0, 35°C; Table 5
T1 sequence (Q6CNP7 1-308 F167W): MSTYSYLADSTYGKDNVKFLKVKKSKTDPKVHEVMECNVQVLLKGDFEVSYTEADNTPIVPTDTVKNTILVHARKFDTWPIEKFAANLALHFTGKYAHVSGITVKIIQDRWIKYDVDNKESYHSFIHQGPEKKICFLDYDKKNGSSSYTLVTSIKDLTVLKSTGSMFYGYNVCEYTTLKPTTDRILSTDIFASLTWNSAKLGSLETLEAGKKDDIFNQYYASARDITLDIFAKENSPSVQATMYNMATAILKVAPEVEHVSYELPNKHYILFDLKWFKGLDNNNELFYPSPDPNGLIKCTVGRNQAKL
Description: as §1, §2

[4] = molecular target: T2, Kluyveromyces lactis uricase KlUOX (wild type) (SEQ ID NO.1) (Kluyveromyces lactis, UniProt Q6CNP7); format: biochemical; conditions: substrate uric acid; pH 7.0, 35°C; Table 5
T2 sequence (Q6CNP7 1-308): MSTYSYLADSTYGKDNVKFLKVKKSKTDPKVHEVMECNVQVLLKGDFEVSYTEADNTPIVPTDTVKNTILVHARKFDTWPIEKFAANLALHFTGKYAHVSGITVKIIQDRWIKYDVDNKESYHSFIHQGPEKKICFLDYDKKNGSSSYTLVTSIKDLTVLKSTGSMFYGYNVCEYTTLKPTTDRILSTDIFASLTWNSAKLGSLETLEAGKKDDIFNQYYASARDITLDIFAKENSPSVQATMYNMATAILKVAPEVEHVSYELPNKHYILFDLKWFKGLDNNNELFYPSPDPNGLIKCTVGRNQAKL
Description: as §1, §2

[5] = molecular target: T3, Kluyveromyces lactis uricase variant KI T62S, Mutant 1 (SEQ ID NO.2) (Kluyveromyces lactis, UniProt Q6CNP7, T62S); format: biochemical; conditions: substrate uric acid; pH 7.0, 35°C; Table 5
T3 sequence (Q6CNP7 1-308 T62S): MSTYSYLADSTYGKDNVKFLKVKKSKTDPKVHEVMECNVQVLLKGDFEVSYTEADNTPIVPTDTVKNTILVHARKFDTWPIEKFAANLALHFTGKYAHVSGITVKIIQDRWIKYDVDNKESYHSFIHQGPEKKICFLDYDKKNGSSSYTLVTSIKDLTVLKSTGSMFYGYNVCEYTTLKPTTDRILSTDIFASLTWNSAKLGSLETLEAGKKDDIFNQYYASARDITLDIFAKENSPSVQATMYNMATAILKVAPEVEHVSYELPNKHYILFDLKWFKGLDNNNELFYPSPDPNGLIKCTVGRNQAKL
Description: as §1, §2

[6] = substrate: O=c1[nH]c(=O)c2[nH]c(=O)[nH]c2[nH]1; format: biochemical, A. globiformis; conditions: other: substrate uric acid 10 to 600 µM; respective optimum pH and temperature; Table 1; pH 7.0
Description: as §1, §2

[7] = substrate: O=c1[nH]c(=O)c2[nH]c(=O)[nH]c2[nH]1; format: biochemical, Kluyveromyces lactis; conditions: other: substrate uric acid 10 to 600 µM, pH 7.0, 35°C, Table 1; remark: listed apart in the source
Description: as §1, §2

[8] = substrate: O=c1[nH]c(=O)c2[nH]c(=O)[nH]c2[nH]1; format: biochemical, Candida utilis; conditions: other: substrate uric acid 10 to 600 µM; respective optimum pH and temperature; Table 1; pH 7.0
Description: as §1, §2

Kluyveromyces lactis uricase variant KI T62S, Mutant 1 (SEQ ID NO.2) (Kluyveromyces lactis NRRL Y-1140; T62S)
Km [1]: 16.2 µM | kcat [1]: 0.2387 s⁻¹ | kcat/Km [1]: 14700 M⁻¹ s⁻¹

Kluyveromyces lactis uricase variant KI F167W, Mutant 2 (SEQ ID NO.3) (Kluyveromyces lactis NRRL Y-1140; F167W)
Km [1]: 28.07 µM | kcat [1]: 0.242 s⁻¹ | kcat/Km [1]: 8600 M⁻¹ s⁻¹

A. flavus uricase (Aspergillus flavus)
Km [2]: 96.2 µM | kcat [2]: 0.0717 s⁻¹ | kcat/Km [2]: 733 M⁻¹ s⁻¹

O=c1[nH]c(=O)c2[nH]c(=O)[nH]c2[nH]1 [uric acid]
Kcat [3]: 0.242 s⁻¹ | Kcat [4]: 0.2027 s⁻¹ | Kcat [5]: 0.2387 s⁻¹

B1: A. globiformis uricase (Arthrobacter globiformis) (protein)
chain: MTATAETSTGTKVVLGQNQYGKAEVRLVKVTRNTARHEIQDLNVTSQLRGDFEAAHTAGDNAHVVATDTQKNTVYAFARDGFATTEEFLLRLGKHFTEGFDWVTGGRWAAQQFFWDRINDHDHAFSRNKSEVRTAVLEISGSEQAIVAGIEGLTVLKSTGSEFHGFPRDKYTTLQETTDRILATDVSARWRYNTVEVDFDAVYASVRGLLLKAFAETHSLALQQTMYEMGRAVIETHPEIDEIKMSLPNKHHFLVDLQPFGQDNPNEVFYAADRPYGLIEATIQREGSRADHPIWSNIAGFC
Km [6]: 215 ± 2.16 µM | kcat [6]: 0.0145 s⁻¹ | kcat/Km [6]: 67 M⁻¹ s⁻¹

B2: Kluyveromyces lactis uricase KlUOX (wild type) (SEQ ID NO.1) (Kluyveromyces lactis NRRL Y-1140) (protein)
chain: MSTYSYLADSTYGKDNVKFLKVKKSKTDPKVHEVMECNVQVLLKGDFEVSYTEADNTPIVPTDTVKNTILVHARKFDTWPIEKFAANLALHFTGKYAHVSGITVKIIQDRWIKYDVDNKESYHSFIHQGPEKKICFLDYDKKNGSSSYTLVTSIKDLTVLKSTGSMFYGYNVCEYTTLKPTTDRILSTDIFASLTWNSAKLGSLETLEAGKKDDIFNQYYASARDITLDIFAKENSPSVQATMYNMATAILKVAPEVEHVSYELPNKHYILFDLKWFKGLDNNNELFYPSPDPNGLIKCTVGRNQAKL
Km [7]: 40.8 µM | kcat [7]: 0.2027 s⁻¹ | kcat/Km [7]: 4830 M⁻¹ s⁻¹

B3: C. utilis uricase (Williopsis jadinii) (protein)
chain: MSTTLSSSTYGKDNVKFLKVKKDPQNPKKQEVMEATVTCLLEGGFDTSYTEADNSSIVPTDTVKNTILVLAKTTEIWPIERFAAKLATHFVEKYSHVSGVSVKIVQDRWVKYAVDGKPHDHSFIHEGGEKRITDLYYKRSGDYKLSSAIKDLTVLKSTGSMFYGYNKCDFTTLQPTTDRILSTDVDATWVWDNKKIGSVYDIAKAADKGIFDNVYNQAREITLTTFALENSPSVQATMFNMATQILEKACSVYSVSYALPNKHYFLIDLKWKGLENDNELFYPSPHPNGLIKCTVVRKEKTKL
Km [8]: 38.5 ± 5.16 µM | kcat [8]: 0.2027 s⁻¹ | kcat/Km [8]: 5250 M⁻¹ s⁻¹
